Data: the supplement of paper PMC5998384

Tests used:
HeLa Kyoto [1] = assay: solubility change mitosis vs G1/S (difference of NP-40 vs SDS log2 ratios) (log2 ratio difference); higher = more soluble in mitosis
HeLa Kyoto [2] = assay: solubility in G1/S (NP-40 vs SDS abundance) (log2 ratio); higher = more soluble; details: cell cycle stage: G1/S
HeLa Kyoto [3] = assay: melting temperature (median over replicates), in situ; higher = more thermally stable
HeLa Kyoto [4] = assay: thermal stability score vs G1/S (z-score of summed log2 fold changes over temperatures); higher = more thermally stable than in G1/S
[5] = cell cycle stage: early G1 (4.5 h after nocodazole release)
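Wherever melting temperature (median over replicates), in situ is given: HeLa Kyoto cells synchronized by double thymidine or nocodazole block, proteins quantified by TMT10plex mass spectrometry, three independent biological replicates.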
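Wherever solubility change mitosis vs G1/S (difference of NP-40 vs SDS log2 ratios) is given: synchronized HeLa Kyoto cells (double thymidine block for G1/S, nocodazole release for mitosis), protein amounts in NP-40 versus SDS lysates quantified by mass spectrometry, three biological replicates.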
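Wherever solubility in G1/S (NP-40 vs SDS abundance) is given: HeLa Kyoto cells arrested at G1/S by double thymidine block, proteins quantified by TMT10plex mass spectrometry in mild NP-40 versus SDS extracts, three biological replicates.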
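Wherever thermal stability score vs G1/S (z-score of summed log2 fold changes over temperatures) is given: synchronized HeLa Kyoto cells, proteins quantified by TMT10plex mass spectrometry, three biological replicates, mitosis taken 0.5 h after nocodazole release, G1/S directly after double thymidine block.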

Sequence | solubility change mitosis (log2) (HeLa Kyoto [1]) | solubility in G1/S (log2) (HeLa Kyoto [2]) | melting temperature (HeLa Kyoto [3]; cell cycle stage: G1/S) [°C] | melting temperature (HeLa Kyoto [3]; cell cycle stage: mitosis) [°C] | thermal stability score (HeLa Kyoto [4]; [5]) | thermal stability score (HeLa Kyoto [4]; cell cycle stage: mitosis)
MAALEEEFTLSSVVLSAGPEGLLGVEQSDKTDQFLVTDSGRTVILYKVSDQKPLGSWSVKQGQIITCPAVCNFQTGEYVVVHDNKVLRIWNNEDVNLDKVFKATLSAEVYRILSVQGTEPLVLFKEGAVRGLEALLADPQQKIETVISDEEVIKWTKFFVVFRHPVLIFITEKHGNYFAYVQMFNSRILTKYTLLLGQDENSVIKSFTASVDRKFISLMSLSSDGCIYETLIPIRPADPEKNQSLVKSLLLKAVVSGNARNGVALTALDQDHVAVLGSPLAASKECLSVWNIKFQTLQTSKELPQGTSGQLWYYGEHLFMLHGKSLTVIPYKCEVSSLAGALGKLKHSQDPGTHVVSHFVNWETPQGCGLGFQNSEQSRRILRRRKIEVSLQPEVPPSKQLLSTIMKDSEKHIEVEVRKFLALKQTPDFHTVIGDTVTGLLERCKAEPSFYPRNCLMQLIQTHVLSYSLCPDLMEIALKKKDVQLLQLCLQQFPDIPESVTCACLKIFLSIGDDSLQETDVNMESVFDYSINSVHDEKMEEQTEILQNGFNPEEDKCNNCDQELNKKPQDETKESTSCPVVQKRAALLNAILHSAYSETFLLPHLKDIPAQHITLFLKYLYFLYLKCSENATMTLPGIHPPTLNQIMDWICLLLDANFTVVVMMPEAKRLLINLYKLVKSQISVYSELNKIEVSFRELQKLNQEKNNRGLYSIEVLELF [NOL11] | 0.471 | -0.963 | 55.1 | 52.9 | -2.5 | -6.66
MAALGEPVRLERDICRAIELLEKLQRSGEVPPQKLQALQRVLQSEFCNAVREVYEHVYETVDISSSPEVRANATAKATVAAFAASEGHSHPRVVELPKTEEGLGFNIMGGKEQNSPIYISRIIPGGIADRHGGLKRGDQLLSVNGVSVEGEHHEKAVELLKAAQGKVKLVVRYTPKVLEEMESRFEKMRSAKRRQQT [LIN7C] | 0.202 | 0.382 | 50.1 | 51.5 | -0.659 | -0.713
MAALLRRLLQRERPSAASGRPVGRREANLGTDAGVAVRVRFAPSPTGFLHLGGLRTALYNYIFAKKYQGSFILRLEDTDQTRVVPGAAENIEDMLEWAGIPPDESPRRGGPAGPYQQSQRLELYAQATEALLKTGAAYPCFCSPQRLELLKKEALRNHQTPRYDNRCRNMSQEQVAQKLAKDPKPAIRFRLEQVVPAFQDLVYGWNRHEVASVEGDPVIMKSDGFPTYHLACVVDDHHMGISHVLRGSEWLVSTAKHLLLYQALGWQPPHFAHLPLLLNRDGSKLSKRQGDVFLEHFAADGFLPDSLLDIITNCGSGFAENQMGRTLPELITQFNLTQVTCHSALLDLEKLPEFNRLHLQRLVSNESQRRQLVGKLQVLVEEAFGCQLQNRDVLNPVYVERILLLRQGHICRLQDLVSPVYSYLWTRPAVGRAQLDAISEKVDVIAKRVLGLLERSSMSLTQDMLNGELKKLSEGLEGTKYSNVMKLLRMALSGQQQGPPVAEMMLALGPKEVRERIQKVVSS [EARS2] | -0.0812 | 0.363 | 49.2 | 49.5 | -0.077 | 1.7
MAALRVLLSCVRGPLRPPVRCPAWRPFASGANFEYIIAEKRGKNNTVGLIQLNRPKALNALCDGLIDELNQALKTFEEDPAVGAIVLTGGDKAFAAGADIKEMQNLSFQDCYSSKFLKHWDHLTQVKKPVIAAVNGYAFGGGCELAMMCDIIYAGEKAQFAQPEILIGTIPGAGGTQRLTRAVGKSLAMEMVLTGDRISAQDAKQAGLVSKICPVETLVEEAIQCAEKIASNSKIVVAMAKESVNAAFEMTLTEGSKLEKKLFYSTFATDDRKEGMTAFVEKRKANFKDQ [ECHS1] | 0.0593 | 0.518 | 52.8 | 53.3 | -1.11 | -1.89
MAAMASLGALALLLLSSLSRCSAEACLEPQITPSYYTTSDAVISTETVFIVEISLTCKNRVQNMALYADVGGKQFPVTRGQDVGRYQVSWSLDHKSAHAGTYEVRFFDEESYSLLRKAQRNNEDISIIPPLFTVSVDHRGTWNGPWVSTEVLAAAIGLVIYYLAFSAKSHIQA [SSR4] | 0.0331 | 0.0435 | 55.5 | 54.9 | 1.62 | -0.139
MAAMAVALRGLGGRFRWRTQAVAGGVRGAARGAAAGQRDYDLLVVGGGSGGLACAKEAAQLGRKVAVVDYVEPSPQGTRWGLGGTCVNVGCIPKKLMHQAALLGGLIQDAPNYGWEVAQPVPHDWRKMAEAVQNHVKSLNWGHRVQLQDRKVKYFNIKASFVDEHTVCGVAKGGKEILLSADHIIIATGGRPRYPTHIEGALEYGITSDDIFWLKESPGKTLVVGASYVALECAGFLTGIGLDTTIMMRSIPLRGFDQQMSSMVIEHMASHGTRFLRGCAPSRVRRLPDGQLQVTWEDSTTGKEDTGTFDTVLWAIGRVPDTRSLNLEKAGVDTSPDTQKILVDSREATSVPHIYAIGDVVEGRPELTPIAIMAGRLLVQRLFGGSSDLMDYDNVPTTVFTPLEYGCVGLSEEEAVARHGQEHVEVYHAHYKPLEFTVAGRDASQCYVKMVCLREPPQLVLGLHFLGPNAGEVTQGFALGIKCGASYAQVMRTVGIHPTCSEEVVKLRISKRSGLDPTVTGCUG [TXNRD2] | -0.16 | 0.0295 | 53.6 | 53 | 2.59 | -1.79
MAANKPKGQNSLALHKVIMVGSGGVGKSALTLQFMYDEFVEDYEPTKADSYRKKVVLDGEEVQIDILDTAGQEDYAAIRDNYFRSGEGFLCVFSITEMESFAATADFREQILRVKEDENVPFLLVGNKSDLEDKRQVSVEEAKNRAEQWNVNYVETSAKTRANVDKVFFDLMREIRARKMEDSKEKNGKKKRKSLAKRIRERCCIL [RALA] | -0.0413 | 0.0126 | 58.9 | 57.4 | -3.71 | -3.15
